The target in test [1] is MabSelect Sure Protein A ligand (protein A resin, GE Healthcare). In words: batch resin-slurry partitioning on MabSelect Sure protein A resin; Strip: 100 mM acetic acid.
For test [2] the target is unchanged. The experiment in a line: batch resin-slurry partitioning on MabSelect Sure protein A resin; Equil/wash: 10 mM NaPhosphate, pH 6.5.
Test [3] has the same target. In words: batch resin-slurry partitioning on MabSelect Sure protein A resin; Equil/wash: 10 mM NaPhosphate, pH 6.5; reference mAb2.
Test [4] has the same target. The experiment in a line: batch resin-slurry partitioning on MabSelect Sure protein A resin; Elute: 20 mM NaAcetate, pH 3.5.
Test [5] shares this target. The experiment in a line: batch resin-slurry partitioning on MabSelect Sure protein A resin; High salt wash: 10 mM NaPhosphate, pH 6.5, 0.5M NaCl.
For test [6] the target is unchanged. In words: batch resin-slurry partitioning on MabSelect Sure protein A resin; Strip: 100 mM acetic acid; reference mAb1.
The target is the same in test [7]. In words: batch resin-slurry partitioning on MabSelect Sure protein A resin; High salt wash: 10 mM NaPhosphate, pH 6.5, 0.5M NaCl; reference mAb1.
Test [8] shares this target. In words: batch resin-slurry partitioning on MabSelect Sure protein A resin; High salt wash: 10 mM NaPhosphate, pH 6.5, 0.5M NaCl; reference mAb2.
The target is the same in test [9]. The experiment in a line: batch resin-slurry partitioning on MabSelect Sure protein A resin; Elute: 20 mM NaAcetate, pH 3.5; reference mAb2.
For test [10] the target is unchanged. In words: partitioning on protein A resin under loading conditions; reference mAb3.
For test [11] the target is unchanged. In words: batch resin-slurry partitioning on MabSelect Sure protein A resin; Equil/wash: 10 mM NaPhosphate, pH 6.5; reference mAb1.
For test [12] the target is unchanged. In words: batch resin-slurry partitioning on MabSelect Sure protein A resin; Strip: 100 mM acetic acid; reference mAb2.
Test [13] shares this target. The experiment in a line: batch resin-slurry partitioning on MabSelect Sure protein A resin; Elute: 20 mM NaAcetate, pH 3.5; reference mAb1.

On to phospholipase B-like 2 (PLBL2) (enzyme), for which the log KP (partition coefficient, bound/free) in test [1], in test [2], in [4] and in test [5] was 0 in each case. Further, the log α (log KP PLBL2 - log KP mAb2) was -2 in [3], -2 in test [8], -0.3 in test [9] and 0 in test [12]. For the same substance, the log α (log KP PLBL2 - log KP mAb1) in test [6] is 0; in test [7], -2; in [11], -2. The log α (log KP PLBL2 - log KP mAb3) in test [10] is -2.

As to phospholipase B-like 2 (PLBL2), in test [13], the log α (log KP PLBL2 - log KP mAb1) was determined as 0.

Values taken from US20240115701A1.
